Values of other authors in article PMC7156326.

Molecular target: GATAD2A coiled-coil (Homo sapiens) (UniProt Q86YP4)
UniProt Q86YP4, sequence (Q86YP4 137-178): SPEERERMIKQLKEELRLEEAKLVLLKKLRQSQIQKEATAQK

Kd: 50 nM
Substance: MBD2 coiled-coil (from UniProt Q9UBB5)
